The source of these data is patent US20230051715A1 (MABWELL THERAPEUTICS, published 2023).

The target in experiment [1] is T1, human C1s deletion mutant 2 (NHC) (human, UniProt P09871 16-437).
T1 construct: C-terminal 6xHis tag; also called HuC1s(NHC); huC1sNHC
T1 sequence: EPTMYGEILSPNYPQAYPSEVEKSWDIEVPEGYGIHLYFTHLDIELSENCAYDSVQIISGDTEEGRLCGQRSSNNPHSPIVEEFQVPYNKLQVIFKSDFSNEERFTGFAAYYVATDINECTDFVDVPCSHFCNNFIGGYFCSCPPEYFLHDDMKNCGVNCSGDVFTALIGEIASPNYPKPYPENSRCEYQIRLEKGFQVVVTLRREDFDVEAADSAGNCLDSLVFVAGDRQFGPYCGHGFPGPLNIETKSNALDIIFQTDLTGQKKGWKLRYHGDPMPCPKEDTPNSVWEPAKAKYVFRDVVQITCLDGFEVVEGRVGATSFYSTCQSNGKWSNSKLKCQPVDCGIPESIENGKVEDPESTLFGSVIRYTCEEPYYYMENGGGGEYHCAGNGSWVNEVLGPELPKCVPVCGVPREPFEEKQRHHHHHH
In words: ELISA, plate coated with 200 ng/well HuC1s(NHC), OD450nm. As for the experimental part: (§1) ELISA was carried out by first coating 96-well plates with 200 ng/well of full-length or truncated C1s proteins overnight. The next morning, plates were blocked with SuperBlock T20 blocking buffer (Thermo Scientific 37536) for 1 h with gentle shaking. Then, various concentrations of anti-C1s antibodies diluted in SuperBlock T20 blocking buffer were added to the plates and incubated for 1 h with gentle shaking. Mouse IgG (Sigma-Aldrich 15381) and human IgG1 (BioXCell BP0297) were used as negative controls. The plates were washed before incubating with HRP conjugated secondary antibodies diluted in SuperBlock T20 blocking buffer (goat anti-mouse IgG (H+L) cross-adsorbed secondary antibody HRP (Invitrogen G-21040) or goat anti-human IgG antibody, HRP conjugate (Millipore AP309P)) for 1 h with gentle shaking. At last, the plates were washed and color developed with ELISA liquid HRP substrate (Sigma-Aldrich), followed by stopping the reaction with addition of 1M H₂SO₄ in the same volume as the ELISA liquid substrate. Bound antibody was measured by absorbance at OD₄₅₀ₙₘ.

In experiment [2] the target is T2, human C1s deletion mutant 1 (M151) (human) (UniProt P09871).
T2 sequence: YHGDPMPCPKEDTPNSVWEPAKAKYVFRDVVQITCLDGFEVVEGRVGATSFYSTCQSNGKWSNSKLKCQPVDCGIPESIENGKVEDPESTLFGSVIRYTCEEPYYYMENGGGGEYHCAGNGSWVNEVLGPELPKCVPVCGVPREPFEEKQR
In words: ELISA, plate coated with 200 ng/well HuC1s(M151), OD450nm.

Experiment [3] addresses T3, full-length mouse C1s (produced in house) (mouse, UniProt Q8CG14 16-688).
T3 construct: Called full-length; also called MoC1s; moC1s
T3 sequence: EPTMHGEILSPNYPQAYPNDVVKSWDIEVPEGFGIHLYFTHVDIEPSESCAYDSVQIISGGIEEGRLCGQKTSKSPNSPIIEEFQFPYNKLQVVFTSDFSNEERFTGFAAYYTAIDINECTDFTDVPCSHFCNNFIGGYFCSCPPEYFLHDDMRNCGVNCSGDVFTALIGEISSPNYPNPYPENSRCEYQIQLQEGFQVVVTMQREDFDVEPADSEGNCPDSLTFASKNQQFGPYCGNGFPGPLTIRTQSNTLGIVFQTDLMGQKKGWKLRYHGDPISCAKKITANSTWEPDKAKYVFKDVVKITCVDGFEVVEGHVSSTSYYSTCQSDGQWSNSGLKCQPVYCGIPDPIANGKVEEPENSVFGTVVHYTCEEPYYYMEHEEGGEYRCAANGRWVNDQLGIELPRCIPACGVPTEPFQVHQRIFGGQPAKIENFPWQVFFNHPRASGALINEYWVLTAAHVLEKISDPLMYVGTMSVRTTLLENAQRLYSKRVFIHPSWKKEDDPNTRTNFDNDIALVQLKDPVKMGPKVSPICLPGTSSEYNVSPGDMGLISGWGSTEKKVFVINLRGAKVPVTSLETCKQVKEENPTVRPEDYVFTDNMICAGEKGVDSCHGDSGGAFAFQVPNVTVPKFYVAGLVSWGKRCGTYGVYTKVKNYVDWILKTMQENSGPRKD
In words: ELISA, plate coated with 200 ng/well full-length MoC1s, OD450nm. The method, then:
as §1
(In an ELISA, binding on a coated surface is turned into a signal by an enzyme label.)

The target in experiment [4] is T4, C1s in normal cynomolgus monkey serum (CMS, CompTech NCYS) (cynomolgus monkey, UniProt A0A2K5VQX9 16-685).
T4 sequence: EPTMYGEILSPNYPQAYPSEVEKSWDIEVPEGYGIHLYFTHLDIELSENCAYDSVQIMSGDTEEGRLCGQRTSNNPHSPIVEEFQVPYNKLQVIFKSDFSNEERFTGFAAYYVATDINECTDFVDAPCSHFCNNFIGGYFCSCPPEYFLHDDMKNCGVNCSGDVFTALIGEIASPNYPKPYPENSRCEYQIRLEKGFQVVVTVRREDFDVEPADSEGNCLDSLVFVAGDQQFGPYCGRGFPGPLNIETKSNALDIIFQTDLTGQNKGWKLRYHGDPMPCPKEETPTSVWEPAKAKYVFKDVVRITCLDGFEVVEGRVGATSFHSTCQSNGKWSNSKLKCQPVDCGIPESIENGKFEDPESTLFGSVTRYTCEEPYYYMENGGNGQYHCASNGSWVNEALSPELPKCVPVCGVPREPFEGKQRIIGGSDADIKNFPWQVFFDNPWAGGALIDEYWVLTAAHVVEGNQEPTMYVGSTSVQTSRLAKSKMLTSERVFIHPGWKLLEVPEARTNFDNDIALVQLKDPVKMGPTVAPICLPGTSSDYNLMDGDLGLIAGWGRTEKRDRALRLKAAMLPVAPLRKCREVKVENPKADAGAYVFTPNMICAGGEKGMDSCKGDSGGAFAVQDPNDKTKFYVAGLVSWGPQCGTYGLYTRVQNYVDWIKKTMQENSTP
Description: cell-based or functional assay.

Experiment [5] addresses T5, C1s in normal human serum (NHS, CompTech NHS) (human, UniProt P09871 16-688).
T5 sequence (looked up): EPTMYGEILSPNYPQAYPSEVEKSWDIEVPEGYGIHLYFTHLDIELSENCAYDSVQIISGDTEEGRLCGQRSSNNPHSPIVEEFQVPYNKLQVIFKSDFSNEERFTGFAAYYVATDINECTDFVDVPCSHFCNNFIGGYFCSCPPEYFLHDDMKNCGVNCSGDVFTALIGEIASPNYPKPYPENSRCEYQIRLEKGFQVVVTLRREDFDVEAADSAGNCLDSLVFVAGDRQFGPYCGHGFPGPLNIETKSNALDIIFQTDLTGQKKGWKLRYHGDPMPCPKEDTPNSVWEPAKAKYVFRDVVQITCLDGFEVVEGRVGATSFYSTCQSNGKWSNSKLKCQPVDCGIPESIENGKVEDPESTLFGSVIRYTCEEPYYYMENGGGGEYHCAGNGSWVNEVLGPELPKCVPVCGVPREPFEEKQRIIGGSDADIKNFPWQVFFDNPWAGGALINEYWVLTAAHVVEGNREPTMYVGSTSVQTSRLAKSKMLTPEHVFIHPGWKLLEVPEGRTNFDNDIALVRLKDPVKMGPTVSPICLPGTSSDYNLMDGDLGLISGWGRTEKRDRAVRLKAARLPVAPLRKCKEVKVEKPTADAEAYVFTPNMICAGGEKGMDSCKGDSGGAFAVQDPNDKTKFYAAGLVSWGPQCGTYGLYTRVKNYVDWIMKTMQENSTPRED
In words: cell-based or functional assay.

The target of experiment [6] is T6, full-length human C1s (produced in house) (human, UniProt P09871 16-688).
T6 construct: Called full-length; Partly auto-cleaved at R422-I423 on blots; also called HuC1s; Hu C1s
T6 sequence: T5 sequence (looked up)
Description: ELISA, plate coated with 200 ng/well full-length HuC1s, OD450nm. As for the experimental part:
as §1

Usually EC50 stands for the midpoint of the concentration-response curve.

B1: Anti-C1s antibody hz2-8(H1L2) (antibody, V domains shown)
VH: QVQLVQSGAEVKKPGASVKVSCKASGFNIKEYYMHWVRQAPEQGLEWMGWIDPENGDTIYAQKFQGRVTITADTSTNTAYMELSSLRSEDTAVYYCARSRLFFAYWGQGTLVTVSS
VL: DIQMTQSPKSLSASVGDRVTITCRASQDVRTALDWYQQKPGQSPKLLIYSASYRYSGVPSRFSGSGSGTDFTLTISSLQPEDFATYYCQQQYTTPYTFGQGTKLEIKR
notes: Humanized, human IgG1 / kappa
In turn, B1 returned an EC50 in experiment [1] of 0.003 µg/mL. The molecule further yielded an EC50 in experiment [2] of 0.003 µg/mL. For the same molecule, the binding result in experiment [3] is given as “no binding (tested: 1000 ng/ml (Log 3))”. Moreover, in experiment [4], the “IC50, inhibition of IgM-induced C4 deposition from CMS” value was determined as 0.2 µg/mL and the “IC50, inhibition of cynomolgus monkey complement-mediated lysis of EA” value was determined as 0.1 µg/mL. Further, in experiment [5], the “IC50, inhibition of IgM-induced C4 deposition from NHS” value turned out to be 0.2 µg/mL and the “IC50, inhibition of human complement-mediated lysis of antibody-sensitized sheep erythrocytes (EA)” value worked out at 0.2 µg/mL. This molecule came in with an EC50 in experiment [6] of 0.002 µg/mL.
